From the supplement of paper PMC12042874
± gives the uncertainty stated by the source.

Test: amyloid nucleation score (Sup35N fusion, yeast selection) (log enrichment); library NNK1; higher = more nucleation; inactive = no reads after selection
Summary of the method: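 Nucleation score is defined as the DiMSum log enrichment of output over input reads, with centring on the mode score of non-aggregating sequences. A minimum of 100 input reads was required for each sequence. Reads came from Illumina sequencing of plasmid inserts from psi-negative yeast expressing Sup35N fused to peptides of 20 random codons, induced with 100 μM copper sulfate for 24 hours and grown 7 days at 30°C on medium lacking adenine and uracil.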
NEIYKTA gave an amyloid nucleation score of -1.12 ± 2.7.
With NESRM the amyloid nucleation score was 1.08 ± 0.58.
For NFCLWHNWYVMSVLERGD, the amyloid nucleation score was 7.893 ± 0.071.
Substance NFDSELFSPLMISDVREFTK has an amyloid nucleation score of 1.62 ± 0.47.
NFFDLLYFL showed an amyloid nucleation score of 0.175 ± 0.82.
For NFHDEV, the amyloid nucleation score was -1.22 ± 1.5.
For NFKVQREKGF, the amyloid nucleation score was “inactive”.
Work on NFRGLRLSKIYLLHHAGNLW yielded an amyloid nucleation score of 0.533 ± 0.47.
Substance NFSHHSIYGHVPRPEEQNPM has an amyloid nucleation score of 0.481 ± 1.
Substance NFVARSLLPNILAGLRGTGC has an amyloid nucleation score of -0.139 ± 0.59.
NFVFGHNGGACSYVGLLM gave an amyloid nucleation score of 1 ± 0.7.
NFVGFL showed an amyloid nucleation score of -0.33 ± 0.58.
Work on NGADTSSQAF yielded an amyloid nucleation score of -0.182 ± 1.3.
Substance NGCLITSWDYCSCRAVYQLT has an amyloid nucleation score of -0.602 ± 0.39.
Substance NGHSVASSVDAVMLCRYRGK has an amyloid nucleation score of 0.688 ± 0.69.
NGNEYMVHRHADKWNTGQYR showed an amyloid nucleation score of 5.83 ± 0.084.
Substance NGQRDIEYLSLFSPVGTMNS has an amyloid nucleation score of -0.518 ± 0.43.
NGSADNIIVYGYDANLRWVR gave an amyloid nucleation score of 0.262 ± 0.43.
NGSVTNNKNHPFVDYGVRHE showed an amyloid nucleation score of -0.468 ± 0.36.
Substance NGSYCKQILSRYVCRGECLH has an amyloid nucleation score of -1.85 ± 1.4.
NGTFVLDVRIRSRRSERPLG showed an amyloid nucleation score of 4.09 ± 0.06.
With NGVLYFD the amyloid nucleation score was 0.371 ± 0.57.
In the case of NGYEMVQVLTSFMAAMGVFW, the amyloid nucleation score is reported as 0.256 ± 0.84.
Work on NHSGSFKCGRIVSRYDD yielded an amyloid nucleation score of -1.37 ± 0.95.
NICDFLIYVYYLRSVCDI gave an amyloid nucleation score of -0.358 ± 0.41.
Work on NIGIRI yielded an amyloid nucleation score of 0.095 ± 0.39.
For NIISEN, the amyloid nucleation score was “inactive”.
In the case of NIVNYFSCLKALNKFLHKMG, the amyloid nucleation score is reported as 0.609 ± 0.26.
In the case of NIWVLTYCLVYLSWSNHVF, the amyloid nucleation score is reported as -0.709 ± 0.78.
For NKDYMVVLTDFS, the amyloid nucleation score was -0.326 ± 0.2.
NKIGRGVVCSRLWTCCSCFM gave an amyloid nucleation score of 8.554 ± 0.079.
For NKIQQGYMSPYCNHSVFVSF, the amyloid nucleation score was -0.296 ± 0.65.
NKNCLELCLTHGMLNQL showed an amyloid nucleation score of 0.25 ± 0.36.
For NLENLCLMILRVPVSDVMQP, the amyloid nucleation score was “inactive”.
Substance NLMEKRSLRAIRWIVRSWAG has an amyloid nucleation score of 0.839 ± 0.62.
Work on NLMYAGIRLKGEICTNQVSF yielded an amyloid nucleation score of 0.371 ± 0.16.
With NLSSTEYAFNISDGEKRHED the amyloid nucleation score was 0.186 ± 0.9.
In the case of NLSTCDE, the amyloid nucleation score is reported as 1.03 ± 0.58.
Substance NLSVY has an amyloid nucleation score of -0.232 ± 0.74.
Work on NLTDTKLRDNGKNPALADQV yielded an amyloid nucleation score of -0.226 ± 0.26.
For NLVVQCADGVILSFWDHMVG, the amyloid nucleation score was 2.43 ± 0.32.
In the case of NLVYTTDT, the amyloid nucleation score is reported as 0.467 ± 0.41.
With NLWLPAWCGLYQCNTGHSGY the amyloid nucleation score was 7.996 ± 0.043.
NMEITYLSVFVAVYVHLHFF showed an amyloid nucleation score of -0.728 ± 0.88.
NMGNLFNICETGNLL showed an amyloid nucleation score of 0.296 ± 0.66.
For NMGTVMYGVIQACRAHVNVV, the amyloid nucleation score was 0.22 ± 0.45.
In the case of NMSINI, the amyloid nucleation score is reported as “inactive”.
With NMVGFILLGY the amyloid nucleation score was -0.179 ± 0.29.
With NNCAFYSLRWRKLWLGGMHV the amyloid nucleation score was 8.364 ± 0.056.
Work on NNCYLDTSLSNLIRDGSSPV yielded an amyloid nucleation score of -0.453 ± 0.64.
In the case of NNFSSNWWLELWYRYFVYPI, the amyloid nucleation score is reported as 0.666 ± 0.75.
In the case of NNMSIWGMTVTEYLFITNMN, the amyloid nucleation score is reported as 0.643 ± 0.53.
NNRKYLGRNMAANWGAWFKR gave an amyloid nucleation score of -0.395 ± 0.36.
Substance NPGAYKYHSLSYTSRGGMFV has an amyloid nucleation score of 0.486 ± 0.38.
NPGEWYNSYRSNGEGMRLYE showed an amyloid nucleation score of -0.288 ± 0.88.
In the case of NPLVFRN, the amyloid nucleation score is reported as -0.122 ± 0.61.
In the case of NPWVWTLSIEQGRNE, the amyloid nucleation score is reported as 0.074 ± 0.34.
In the case of NRAMQVFPI, the amyloid nucleation score is reported as “inactive”.
Substance NRHEILHIVG has an amyloid nucleation score of 1.67 ± 0.63.
With NRHVSRRRHSEISLVRKGGA the amyloid nucleation score was -0.313 ± 0.33.
NRNTRLMWNDTVWGIRAARY gave an amyloid nucleation score of -0.279 ± 0.85.
For NRPHTTYFFSFKSQF, the amyloid nucleation score was 5.61 ± 0.063.
Work on NRSWYIRVLHRATSVSLKSF yielded an amyloid nucleation score of -0.226 ± 0.39.
With NRYPTLFWCVRNRVWECLRV the amyloid nucleation score was 0.392 ± 0.46.
In the case of NRYQRYVPTIEMEPNSSYGN, the amyloid nucleation score is reported as “inactive”.
For NSCRMPYSGV, the amyloid nucleation score was “inactive”.
Work on NSCWVEKSNTV yielded an amyloid nucleation score of 0.043 ± 0.62.
Work on NSGNICSVGCGL yielded an amyloid nucleation score of 3.09 ± 0.2.
NSHLVFMGMLFLRISDDFVR showed an amyloid nucleation score of -0.083 ± 1.4.
With NSIHFCGGGRLHSAKLDVSS the amyloid nucleation score was “inactive”.
With NSIVVTT the amyloid nucleation score was 0.114 ± 0.54.
NSIVWSMC showed an amyloid nucleation score of 0.409 ± 0.42.
NSLCSP gave an amyloid nucleation score of -1.31 ± 1.9.
For NSMANREYGYIELDWV, the amyloid nucleation score was “inactive”.
NSRGVSSKYCFGKRIPDGGL gave an amyloid nucleation score of 0.117 ± 0.3.
Substance NSVHWTASGSDSIPTAIESR has an amyloid nucleation score of 1.58 ± 0.2.
Substance NSVISMAPYLFTCIENVKSK has an amyloid nucleation score of 0.315 ± 0.42.
In the case of NSVIWRMG, the amyloid nucleation score is reported as 1.42 ± 0.3.
Substance NSVWHGLYCSQQRSLRTTRL has an amyloid nucleation score of 0.116 ± 0.29.
In the case of NSWQLFYLCSQLIRKSSTLC, the amyloid nucleation score is reported as 0.029 ± 0.37.
NTDSLLFNLISLMRNRERFK showed an amyloid nucleation score of 0.351 ± 0.54.
NTIRFAHLLV gave an amyloid nucleation score of -0.318 ± 0.35.
NTTHDGLRCEIRVWSENRRR showed an amyloid nucleation score of 1.39 ± 0.3.
Work on NVCLLGRLRFYVVLTGIRDL yielded an amyloid nucleation score of -0.34 ± 0.74.
With NVFCPVHENVSRLLQRHTRL the amyloid nucleation score was 1.1 ± 0.53.
In the case of NVGSLVHAAW, the amyloid nucleation score is reported as -0.613 ± 1.3.
In the case of NVGVMGFISASVWLFCWGIF, the amyloid nucleation score is reported as -0.783 ± 0.33.
